# Test results reported in patent EP2922560B1.
# Target: native human IL-23 receptor on the surface of cultured human cells (K-562, THP-1, Jurkat) and primary human T-cells (human) (UniProt Q5VWK5)
# Assay: cell-based or functional assay
# Chain of native human IL-23 receptor on the surface of cultured human cells (K-562, THP-1, Jurkat) and primary human T-cells (human) (Q5VWK5 24-629): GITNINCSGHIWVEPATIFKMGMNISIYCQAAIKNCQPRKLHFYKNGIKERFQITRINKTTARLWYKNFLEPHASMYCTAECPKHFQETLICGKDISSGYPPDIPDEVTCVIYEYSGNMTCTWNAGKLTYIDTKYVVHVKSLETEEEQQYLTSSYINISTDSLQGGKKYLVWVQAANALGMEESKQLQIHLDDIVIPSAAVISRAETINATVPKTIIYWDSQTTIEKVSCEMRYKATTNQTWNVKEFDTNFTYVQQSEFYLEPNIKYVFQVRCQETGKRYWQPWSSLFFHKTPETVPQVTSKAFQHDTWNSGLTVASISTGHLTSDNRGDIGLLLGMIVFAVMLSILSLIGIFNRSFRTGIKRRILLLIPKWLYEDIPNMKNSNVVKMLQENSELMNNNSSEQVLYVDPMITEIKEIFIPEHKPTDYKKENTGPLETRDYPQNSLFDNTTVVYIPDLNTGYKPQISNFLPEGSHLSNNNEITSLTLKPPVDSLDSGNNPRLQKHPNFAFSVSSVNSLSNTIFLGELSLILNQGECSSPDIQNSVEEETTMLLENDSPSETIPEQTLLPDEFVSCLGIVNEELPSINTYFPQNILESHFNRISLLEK
substance,measurement,value
His6-ABDwt-TolA-AVI (from UniProt P19934 131-421),"Th-17+ cell expansion (IL-17-producing cells) in PBMC suspensions after 3 days, normalized to IL-23 only = 1 (normalized cell count (IL-23 only = 1))",0.88
same,"Th-17+ cell expansion in separated T-cell samples after 3 days, normalized to IL-23 only = 1 (normalized cell count (IL-23 only = 1))",0.99
